Assays:
female mice (Balb/c) = test: Dextran Sodium Sulfate-induced ulcerative colitis model; format: in vivo
Procedure: The DSS model of colitis mimics some aspects of the human affection such as macrophage infiltration and up regulation of inflammatory cytokines (i.e. TNFα, IL-1p, IL-6) in the colon mucosa.
Ulcerative colitis (UC) was induced in female mice (Balb/c, 20-22 g, Elevage Janvier) by Dextran Sodium Sulfate (DSS 4%) administered in drinking water (oral route). The mice had free access to DSS during 7 days. Body weight was determined daily. The severity of the UC was assessed by a clinical score estimating the constituency of the stool (0=firm, 1=loose, 2=diarrhea) and the presence of blood (0=no blood, 1=occult blood, 2=gross rectal bleeding). Seven days after the induction of the disease, the animals were sacrificed. The length and the weight of the colon were determined and the ratio Weight/Length/100 g body weight was calculated. The spleen weight was also determined. Blood was sampled to determine serum amyloid protein (SAA) using a specific ELISA.
Test substances or vehicle (PBS/0.02% BSA) was administered at days 3, 4, 5 and 6 after the induction of the UC. Enbrel® (1 mg/kg, sc) was used as reference compound. Three studies were performed as per the following table:
In Study 3, the content of IL-1β in the colon was also measured.

LPS-induced TNFα release = test: LPS-induced TNFalpha release in mice (Example 5); format: in vivo, C3H mice
Procedure: C3H mice (Elevage Janvier) (8 week old), received E. Coli's LPS (O111:B4, Sigma, 0.3 mg/kg, ip) 15 minutes after the administration of the test molecules. LPS was solubilized in sterile saline. Dexamethasone (0.1 mg/kg, sc) was used as reference. 24 h later, the animals were sacrificed and the blood was sampled. Plasma levels of TNF-αwere determined in serum using an ELISA kit (R&D). Statistical analysis was determined with an ANOVA test followed by a post-test of Dunnett.

B1: sCD164-Fcm: SEQ ID NO: 18, sCD164 fused to an Fc part mutated in the Fc receptor and C1q binding regions (protein, listed as Homo sapiens)
chain: DKNTTQHPNVTTLAPISNVTSAPVTSLPLVTTPAPETCEGRNSCVSCFNVSVVNTTCFWIECKDESYCSHNSTVSDCQVGNTTDFCSVSTATPVPTANSTAKPTVQPSPSTTSKTVTTSGTTNNTVTPTSQPVRKSTFDAEPKSCDKTHTCPPCPAPEAEGAPSVFLFPPKPKDTLMISRTPEVTCVVVDVSHEDPEVKFNWYVDGVEVHNAKTKPREEQYNSTYRVVSVLTVLHQDWLNGKEYKCKVSNKALPSSIEKTISKAKGQPREPQVYTLPPSREEMTKNQVSLTCLVKGFYPSDIAVEWESNGQPENNYKTTPPVLDSDGSFFLYSKLTVDKSRWQQGNVFSCSVMHEALHNHYTQKSLSLSPGK
- clinical score (female mice (Balb/c); Study 1, 1 mg/kg, ip, day 6): −23%
- increase in serum amyloid protein A (female mice (Balb/c); Study 1, 3 mg/kg, ip): −36%
- splenomegaly (female mice (Balb/c); Study 1, 3 mg/kg, ip): −27%
- clinical score (female mice (Balb/c); Study 1, 3 mg/kg, ip, day 6): −32%
- colon reduction, length (female mice (Balb/c); Study 1, 3 mg/kg, ip, days 3-6): −21%
- body weight loss (female mice (Balb/c); Study 1, 0.3, 1, 3 mg/kg ip): not affected
- ratio weight/length (colon) (female mice (Balb/c); Study 1, 0.3, 1, 3 mg/kg ip): not affected
- colon reduction, length (female mice (Balb/c); Study 2, 0.3 mg/kg, sc): −13%
- colon reduction, ratio weight/length (female mice (Balb/c); Study 2, 0.3 mg/kg, sc): −26%
- colon reduction, length (female mice (Balb/c); Study 2, 1 mg/kg, sc): −18%
- colon reduction, ratio weight/length (female mice (Balb/c); Study 2, 1 mg/kg, sc): −46%
- body weight loss (female mice (Balb/c); Study 2, 1 mg/kg, sc, day 5 to day 7): reduced significantly
- clinical score (female mice (Balb/c); Study 2, 1 mg/kg, sc, day 6): −22%
- increase in serum amyloid protein A (female mice (Balb/c); Study 2, 3 mg/kg, sc): significantly decreased
- splenomegaly (female mice (Balb/c); Study 2, 0.3, 1, 3 mg/kg sc): not improved
- colon reduction, length (female mice (Balb/c); Study 3, 0.3 mg/kg, sc): −18%
- colon reduction, ratio weight/length (female mice (Balb/c); Study 3, 0.3 mg/kg, sc): −19%
- body weight loss (female mice (Balb/c); Study 3, 1 mg/kg, sc): did not have any effect
- clinical score (female mice (Balb/c); Study 3, 1 mg/kg, sc): tended to improve
- colon reduction, length (female mice (Balb/c); Study 3, 1 mg/kg, sc): −26%
- colon reduction, ratio weight/length (female mice (Balb/c); Study 3, 1 mg/kg, sc): −25%
- content of IL-1β in colon (female mice (Balb/c); Study 3, 1 mg/kg, sc): tended to improve
- serum amyloid A protein (female mice (Balb/c); Study 3, 1 mg/kg, sc): did not have any effect
- body weight loss (female mice (Balb/c); Study 3, 0.3 and 1 mg/kg, sc): did not have any effect
- clinical score (female mice (Balb/c); Study 3, 0.3 and 1 mg/kg, sc): trended to improve
- serum amyloid A protein (female mice (Balb/c); Study 3, 0.3 and 1 mg/kg, sc): did not have any effect
- splenomegaly (female mice (Balb/c); Study 3, 0.3 and 1 mg/kg, sc): trended to improve
- content of IL-1β in colon (female mice (Balb/c); Study 3, 0.3 and 1 mg/kg, sc (dose of the single value not stated)): −22%

B2: sCD164: SEQ ID NO: 15, mature full-length CD164 extracellular domain (exons 1 to 6), expressed with C-terminal hexa-histidine tag (protein)
chain: DKNTTQHPNVTTLAPISNVTSAPVTSLPLVTTPAPETCEGRNSCVSCFNVSVVNTTCFWIECKDESYCSHNSTVSDCQVGNTTDFCSVSTATPVPTANSTAKPTVQPSPSTTSKTVTTSGTTNNTVTPTSQPVRKSTFDA
modifications: homo sapiens
- LPS-induced TNFα release (LPS-induced TNFα release; 1 mg/kg iv, 15 minutes prior to LPS, P<0.001): significantly decrease
- TNFα release after LPS induction (LPS-induced TNFα release; previous experiments in this model): decrease TNFα release

Reference: US7803910B2, “Soluble CD164 polypeptides” (Merck Serono S.A., priority 2005, dated 2010)
